According to a protein production outcome set (Wang et al. 2014):

Test: label from the status in PepcDB records

Row | Sequence | protein production
1 | MLMPRRMKYRKQQRGRLKGATKGGDYVAFGDYGLVALEPAWITAQQIEAARVAMVRHFRRGGKIFIRIFPDKPYTKKPLEVRMGKGKGNVEGYVAVVKPGRVMFEVAGVTEEQAMEALRIAGHKLPIKTKIVRRDAYDEAQ | not failed
2 | MIYRFTIISDEVDDFVREIQIDPEATFFDLHEAILKAANYTNDQMTSFFICDDDWEKEKEITLEEMDNNPEMDSWIMKETRLNELIEDEKQKLLYVFDYMTERCFFIELSEIITGKEIKGAKCTKKSGEAPKQTVDFEEMAAGGGSLDLDENFYGDQDFDMEDFDAEGFDVNDGAAGGGSSYDEDKFLEHHHHHH | not failed
3 | TLTVNGPPIISSTQTQHALHGEKGQIKCFIRSTPPPDRIAWSWKENVLESGTSGRYTVETISTEEGVISTLTISNIVRADFQTIYNCTAWNSFGSDTEIIRLKEQGSEM | not failed
4 | MNVAEEMLSGEETLAVGERFKTFLENFRTEEGKLKYVEAIRRMINYEETSLEVEFKDLYRYDPLLSEILLEKPREFLKEASEALKEIVAQESPEYAQGRVFTPRFTGLFDTERIRDIGSDHVGKLVQINGIVTRMHPRATRMVRARFRHDRCGAEFWWPANEDEVLGERIERPSICPVCGEGGGKFTLVRDKSLYIDWQKIMVQERPEDVPGGQIPRSIEVHLSRDLVEKVRPGDRVKIVGVVGLQSFSSSSTLYSLYMEANSILLEEKILEEVSITREDEEKILQLSRDPWIKEKIIASIAPTIYGHWDLKEAIALLLFGGVPKQRPDGTRTRGDIHVLFVGDPGVAKSQLLQSTAQVAPRVVYTTGKGSTAAGLTAAVLRDPRTGEYFLEAGALVLADGGIAVIDEFDKMSKEDRGVIHEAMEQQTVSIAKAGIKATLSARASLLAAGNPKFGYYDPSRSFVDNVDLPAPIISRFDLIFVVRDVIERSRDEMLASYVLETHTNVELFKPEIDPDLLRKYIAFARKHVKPRLTPQAKKLLKDFYVEMRSSALHHSSQEGAKPVPITTRQLEALIRLTEAHARMSLKQEATEEDAIAAIRIMTSVLQSIGLDLETGEIDIGIIMTGASFRSRKIMSEVLDLIKSIVEEERGGQGCVRASEIVRRLGEKNIPEEKVRDAIDKLYRQGLIIEIRTECYKAV | failed
5 | MLDFLAANPLIALVVILAVGLAIGQIRVFGLSLGAAAVLFVALVVSTANTDIVIPMIVYQLGLAMFVYVIGLSAGPAFFSEFAKKGWKLTIFMLLLLATLIGLAWVLIKSLGLDAAIGTGMFTGALTSTPGMAAVVELIEGIDPSLASEPVIGYSLAYPGAVLGSIVVAAVGAKLLKVNHREDARKEGMITAPLVWKGVQLKPGITGRVGDLPRLAGESIIATRIVDDPHTHRLADPDLPITEGMELLINGTEEAVDRAIKALGEERETKIEDTELIYTRLTVSSPEVAGRTVAELDTVAHGFMIARIRQGDSEVVPKPDTVINYSDRIRVVVAPGRVAEVRRFLGDSEKSLADVNLLPLAIGLSLGLLLGAIPIPLPGGTTMSLGFGGGPIIAGLILGALKHTGPLTWQMPFHANRTISTLGLALFLAGVGTSAGAGFRAALTDSSSLIYMAGGLVITLASALLCAVIGMWVLRLRWDEAMGVAAGTTTNPAIISYLNGQTGTDLANRGYATVYPTAMIGKILGAQILFLLL | failed
6 | MGMEHKTYEADLFVWCQQQADGLRALSRSRRDLPDDLDLEHIAEEIEDMGRSELREATSLVRQICVRVIMAMSAPEAPDRARWRSEVVSWHNLLLDTITPGMIDRIDIGVIWRRAVSEAKAALIEINVAPQAGLSFQAPLPADHFLDEDFDYDATVARLGPTA | not failed
7 | NALHIINMVGTRNATDYGKHICVSFLQELQMLCPDVLVVSGLAYGIDINAHRSALSVELPTVGVLAHGLDRIYPSLHRKTAIDMLRQGGLLTEFLSGTNPDKHNFISRNRIVAGISDATIVVESAAKGGSLITADIAGSYHRDCFAFPGR | failed
8 | GRKYLVNFSDIYYIESVDKKTFVYLADEIYQTDLRLYQLLHDLQHDGFVQISKSCLLNINVLENIRPLFNSRMEATLLNGERVIVNRRYLPDVKEALKGIQ | failed
9 | MKEIKYLIPYVIFTSFSYYFAKNGVEQVSPSLFMGIRYLLSGLILLPFAKKLRITKNIILLAIMTSTSTAFWAYGLLYVSPAESAVLSYSMPIFSLPIAFLMVSERPSKVEIIGIVIGFTGVIIYGIPLMKGFTIFGAVLTISNAVFWASFTVFYRKLKEEDPFSTNAMQFLIGSLFLFALVPLDPSHNFSLSFAVDVIWMATLGGALQFILWNFMVKISAVNRITVLAFAVPIFTTILGVILSHEIPSGLAIAGVIIMFTGIFVSRLKGGISIVRETSG | failed
10 | KDDDNVETGAFDPSKPVAISDFTPKEGGAYQKLLIYGENFGTDVSKVKVKIGGKDAIVINVKSTYVYCFVPSGAFSGEIEITVGEGENAVTTTASTTFSYEKKMVVGTLCGYRNNRDDQGWRDGPFDGPEGVKCCGFSDNGRLAFDPLNKDHLYICYDGHKAIQLIDLKNRMLSSPLNINTIPTNRIRSIAFNKKIEGYADEAEYMIVAIDYDGKGDESPSVYIIKRNADGTFDDRSDIQLIAAYKQCNGATIHPINGELYFNSYEKGQVFRLDLVDYFKTIKNGGSWDPIVKNNPNTFKQLFTIADPSWEFQIFIHPTGKYAYFGVINNHYFMRSDYDEIKKEFITPYNFVGGYKQSGYRDDVGTEARMNNPCQGVFVKNPDYTGEEEYDFYFVDRLNFCVRKVTPEGIVSTYAGRGASTSLADGNQWGTDDGDLREVARFRDVSGLVYDDVKEMFYVHDQVGHTIRTISMEQEENVAGDENIPEDESTVESNE | not failed
11 | SSFQGPLDATVVVNLQSPTLEEKNEFPEDLRTELMQTLGSYGTIVLVRINQGQMLVTFADSHSALSVLDVDGMKVKGRAVKI | not failed
12 | MSQFAINIMFVGGSFLLYIAIAVWAKAGSTSDFYVAGGGVHPITNGAAIGADWMSAASFISMAGLIAAGGYANSTFLMGWTGGYVLLAMLLAPYLRKFGKFTVPEFIGDRYYSANARLVAVICLIVASVTYVIGQMAGAGVAFSRFLEVDATTGLIIAAVVVFVYAVLGGMKGITYTQVAQYCVLIVAYTIPAVFISIQLTGNPIPGLGMFSTHTDSGLPLLEKLNQVITDLGFNEYTADVDNKLNMVLFTLSLMIGTAGLPHVIIRFFTVPKVADARWSGGWALVFIALLYLTAPAVASMARLNLMTTIYPDGTQAAPIEYDERPNWVKEWEVTGLIQFTDKNEDGRIQLYNDVPAFEAEAQARGWNGNELVVNRDILVLANPEIANLPGWVIGLIAAGGLAAALSTAAGLLLAISSAVSHDLIKGRFNPSISDKGELMAARISMAVAIVVATYLGANPPGFAAQVVALAFGIAAASLFPALMMGIFSKRVNNVGATLGMLSGLLFTLIYIFVYKGWLFIPGTNNLPDTPENWVLGISPLSIGAVGALVNFAVAFAVSKATAEPPVEIQELVESVRYPRGAGTAQDH | failed
13 | MARRNRGVTRRERPNLLITGTPGTGKSTTASALAEATNLRYICIGDLVKEKEFYHGWDNELECHFINEDSVIDELDDAMIEGGNIVDYHGCDFFPQRWFDRVVVLRTENSVLYDRLTNSKVLIVFSQPTKAGVIQEPSLVTTFNAKCIKSYSKKHMTVMMRKLSLNYKGEAMLAKTVFPRGLLVLRSFSSVASKTLLKVGDVLRETRVFSSEDIKAYAEVSHDWNPLHFDPESARKAGFENRLVHGMLVSSMFPRIISAHFPGAVYVSQSLHFRSPVYIGDEILGLVQAIALRETKNKYIVKFSTKCFKNHNELVVIDGEATAILPNLDMLQKSPSE | failed
14 | MALQLGPHELQHVFSFLEARDLLRAAQVNKVWNEVSMTNELWRQLCLRRWAPCKALPVVLGTQTWRQYYFCRSELEFRVKSGRPQDFICKAISGHTGTIDQLAYVSPHEYRFDEKARSVVCTVSSDCTVRAWDLQEGTEMWSSPVQPAPLVNLVAYPQLQLVVTVDTQGLIRGWNTDTGSEWAFFSLPTSCSSMEACDHPEGSFLLVACAEGTLYTMTVPQLQVVFRVATFPHTPVSLMCSPDKQWVLVSAQDSDLGPKVFYTQPLLHPSEDRLPASATLPIRLSSRACWAPDEAARLMVTHRDDSGVHLVITTFELKANKSRDRVSILAQQLASFPLPDTMTPHLMQGHGSQVILLTSGSELVLFNIHGLQLMAFQDHQKPITSVWVDPDRVITAALDLSLCVYVWNKENTSPILKSCYHLLGGSHRWASGFTHVKSDSRSIAGVEARSTGTSILRSYCYKVQLG | failed
